Data on eleven molecules can be found in patent publication US20220098307A1 (WUHAN YZY BIOPHARMA, published 2022).

T1: human CEA (human, UniProt P06731 35-685)
T1 sequence: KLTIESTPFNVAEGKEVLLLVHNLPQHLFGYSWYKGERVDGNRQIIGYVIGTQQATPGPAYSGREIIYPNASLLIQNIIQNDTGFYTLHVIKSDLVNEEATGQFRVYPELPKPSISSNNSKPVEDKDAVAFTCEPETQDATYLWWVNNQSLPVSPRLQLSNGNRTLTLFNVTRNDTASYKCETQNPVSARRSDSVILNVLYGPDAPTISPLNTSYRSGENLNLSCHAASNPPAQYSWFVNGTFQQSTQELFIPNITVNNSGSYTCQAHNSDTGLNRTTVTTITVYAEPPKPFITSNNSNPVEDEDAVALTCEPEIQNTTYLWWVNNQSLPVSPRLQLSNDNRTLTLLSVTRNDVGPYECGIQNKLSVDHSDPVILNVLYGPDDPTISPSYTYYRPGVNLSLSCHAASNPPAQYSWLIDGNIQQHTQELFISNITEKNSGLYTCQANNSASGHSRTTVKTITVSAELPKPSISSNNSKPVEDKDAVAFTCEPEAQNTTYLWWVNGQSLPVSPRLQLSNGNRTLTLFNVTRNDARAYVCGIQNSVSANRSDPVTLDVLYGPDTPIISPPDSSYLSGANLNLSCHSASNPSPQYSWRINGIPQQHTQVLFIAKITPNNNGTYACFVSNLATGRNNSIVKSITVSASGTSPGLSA

T2: Human BCMA (human, UniProt Q02223 1-54)
T2 sequence: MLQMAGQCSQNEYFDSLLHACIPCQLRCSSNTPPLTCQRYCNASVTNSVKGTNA

B1: M2IC-AG2 (bispecific antibody, human IgG1, kappa)
chain: EVKLDETGGGLVQPGRPMKLSCVASGFTFSDYWMNWVRQSPEKGLEWVAQIRNKPYNYETYYSDSVKGRFTISRDDSKSSVYLQMNNLRVEDMGIYYCTGSYYGMDYWGQGTSVTVSSASTKGPSVFPLAPSSKSTSGGTAALGCLVKDYFPEPVTVSWNSGALTSGVHTFPAVLQSSGLYSLSSVVTVPSSSLGTQTYICNVNHKPSNTKVDKKVEPKSCDKTHTGGGSAAAQVQLVESGGGVVQPGRSLRLSCAASGFTFSTYAMNWVRQAPGKGLEWVARIRSKYNNYATYYADSVKDRFTISRDDSKNTLYLQMNSLRAEDTAVYYCARHGNFGNSYVSWFAYWGQGTLVTVSSGGGGSGGGGSGGGGSQTVVTQEPSLTVSPGGTVTLTCRSSTGAVTTSNYANWVQQKPGQAPRGLIGGTNKRAPGVPARFSGSLLGGKAALTLSGVQPEDEAEYYCALWYSNLWVFGGGTKVEIKGGGGSDKTHTCPPAPAPPVAGPSVFLFPPKPKDTLMISRTPEVTCVVVDVSHEDPEVQFNWYVDGVEVHNAKTKPREEQFNSTFRVVSVLTVVHQDWLNGKEYKCKVSNKGLPAPIEKTISKTKGQPREPQVYTLPPCRDELTKNQVSLWCLVKGFYPSDIAVEWESNGQPENNYKTTPPVLDSDGSFFLYSKLTVDKSRWQQGNVFSCSVMHEALHNHYTQKSLSLSPGK
heavy: EVKLDETGGGLVQPGRPMKLSCVASGFTFSDYWMNWVRQSPEKGLEWVAQIRNKPYNYETYYSDSVKGRFTISRDDSKSSVYLQMNNLRVEDMGIYYCTGSYYGMDYWGQGTSVTVSSASTKGPSVFPLAPSSKSTSGGTAALGCLVKDYFPEPVTVSWNSGALTSGVHTFPAVLQSSGLYSLSSVVTVPSSSLGTQTYICNVNHKPSNTKVDKKVEPKSCDKTHTCPPAPAPPVAGPSVFLFPPKPKDTLMISRTPEVTCVVVDVSHEDPEVQFNWYVDGVEVHNAKTKPREEQFNSTFRVVSVLTVVHQDWLNGKEYKCKVSNKGLPAPIEKTISKTKGQPREPQVCTLPPSRDELTKNQVSLSCAVKGFYPSDIAVEWESNGQPENNYKTTPPVLDSDGSFFLVSKLTVDKSRWQQGNVFSCSVMHEALHNRFTQKSLSLSPGK
light: DVVMTQTPLSLPVSLGDQASISCRSSQSLVHSNGNTYLRWYLQKPGQSPKVLIYKVSNRFSGVPDRFSGSGSGTDFTLKISRVEAEDLGVYFCSQSTHVPWTFGGGTKLEIKRTVAAPSVFIFPPSDEQLKSGTASVVCLLNNFYPREAKVQWKVDNALQSGNSQESVTEQDSKDSTYSLSSTLTLSKADYEKHKVYACEVTHQGLSSPVTKSFNRGEC
notes: structure 2 isotype control; CH2 AG2CH2
B2: M3IC-G2 (bispecific antibody)
chain 1: EVKLDETGGGLVQPGRPMKLSCVASGFTFSDYWMNWVRQSPEKGLEWVAQIRNKPYNYETYYSDSVKGRFTISRDDSKSSVYLQMNNLRVEDMGIYYCTGSYYGMDYWGQGTSVTVSSASTKGPSVFPLAPSSKSTSGGTAALGCLVKDYFPEPVTVSWNSGALTSGVHTFPAVLQSSGLYSLSSVVTVPSSSLGTQTYICNVNHKPSNTKVDKKVEPKSCGGGGSGGGGSQVQLVESGGGVVQPGRSLRLSCAASGFTFSTYAMNWVRQAPGKGLEWVARIRSKYNNYATYYADSVKDRFTISRDDSKNTLYLQMNSLRAEDTAVYYCARHGNFGNSYVSWFAYWGQGTLVTVSSASVAAPSVFIFPPSDEQLKSGTASVVCLLNNFYPREAKVQWKVDNALQSGNSQESVTEQDSKDSTYSLSSTLTLSKADYEKHKVYACEVTHQGLSSPVTKSFNRGECDKTHTCPPCPAPPVAGPSVFLFPPKPKDTLMISRTPEVTCVVVDVSHEDPEVQFNWYVDGVEVHNAKTKPREEQFNSTFRVVSVLTVVHQDWLNGKEYKCKVSNKGLPAPIEKTISKTKGQPREPQVYTLPPCRDELTKNQVSLWCLVKGFYPSDIAVEWESNGQPENNYKTTPPVLDSDGSFFLYSKLTVDKSRWQQGNVFSCSVMHEALHNHYTQKSLSLSPGK
chain 2: QTVVTQEPSLTVSPGGTVTLTCRSSTGAVTTSNYANWVQQKPGQAPRGLIGGTNKRAPGVPARFSGSLLGGKAALTLSGVQPEDEAEYYCALWYSNLWVFGGGTKVEIKSSASTKGPSVFPLAPSSKSTSGGTAALGCLVKDYFPEPVTVSWNSGALTSGVHTFPAVLQSSGLYSLSSVVTVPSSSLGTQTYICNVNHKPSNTKVDKKVEPKSC
heavy: B1 heavy with A230C
light: B1 light
notes: structure 3 isotype control; CH2 G2CH2
B3: M3IC-DG2 (bispecific antibody)
chain 1: B2 chain 1 with D507A
chain 2: B2 chain 2
heavy: B1 heavy with A230C, D265A
light: B1 light
notes: structure 3 isotype control; CH2 DG2CH2
B4: M2IC-G2D (bispecific antibody, human IgG1, kappa)
chain: B1 chain with A496C, D536A
heavy: B1 heavy with A230C, D270A
light: B1 light
notes: structure 2 isotype control; CH2 G2DCH2
B5: M2IC-DG2 (bispecific antibody, human IgG1, kappa)
chain: B1 chain with A496C, D531A
heavy: B1 heavy with A230C, D265A
light: B1 light
notes: structure 2 isotype control; CH2 DG2CH2
B6: M2IC-PG2 (bispecific antibody, human IgG1, kappa)
chain: B1 chain with A496P
heavy: B1 heavy with A230P
light: B1 light
notes: structure 2 isotype control; CH2 PG2CH2
B7: M2IC-DG2D (bispecific antibody, human IgG1, kappa)
chain: B1 chain with A496C, D531A, D536A
heavy: B1 heavy with A230C, D265A, D270A
light: B1 light
notes: structure 2 isotype control; CH2 DG2DCH2
B8: M2IC-GG2 (bispecific antibody, human IgG1, kappa)
chain: B1 chain with A496G
heavy: B1 heavy with A230G
light: B1 light
notes: structure 2 isotype control; CH2 GG2CH2
B9: M2IC-SG2 (bispecific antibody, human IgG1, kappa)
chain: B1 chain with A496S
heavy: B1 heavy with A230S
light: B1 light
notes: structure 2 isotype control; CH2 SG2CH2
B10: M3IC-DG2D (bispecific antibody)
chain 1: B2 chain 1 with D507A, D512A
chain 2: B2 chain 2
heavy: B1 heavy with A230C, D265A, D270A
light: B1 light
notes: structure 3 isotype control; CH2 DG2DCH2
B11: M3IC-AG2 (bispecific antibody)
chain 1: B2 chain 1 with C472A
chain 2: B2 chain 2
heavy: B1 heavy
light: B1 light
notes: structure 3 isotype control; CH2 AG2CH2

Positions count from the first letter of the chain named.

For one assay, the target named is T3, Human CD3ε (human, UniProt P07766 23-126).
T3 construct: CD3 on T cells isolated from human whole blood
Description: flow cytometry, human T cells. In a few lines: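 Mean fluorescence intensity by flow cytometry was plotted against antibody concentration; EC50 came from a one site–specific binding fit. Cells (2×10⁵/well) were incubated with 11-point, 3-fold antibody dilutions starting at 3000 nM for 2 h at 4° C, then with PE anti-human IgG Fc for 1 h.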
B1: a half-maximal response (EC50) required 535 nM.
Molecule B2 returned an EC50 of 701 nM.
For B3, the EC50 amounted to 710 nM.
Molecule B4 returned a half-maximal effective concentration (EC50) of 367 nM.
On to B5, for which the concentration for a half-maximal effect (EC50) is 357 nM.
On the same count and under the same terms, under B6 stands 467 nM; under B7, 452 nM.
On the same count and under the same terms, next, B8: 556 nM; B9: 481 nM; B10: 638 nM.
For B11, the EC50 was 674 nM.

A further assay has as its target T4, Monkey CD3 (monkey).
T4 construct: whole, on cells; also called CD3 of monkey CD3 positive T cells
Put plainly: flow cytometry, monkey T cells.
For B1, the EC50 is 607 nM.
On to B4, for which the EC50 came to 538 nM.
Same read-out and setting: under B5 stands 570 nM.
The same measure, in the same setting: next, B6: 656 nM.
In turn, B7 registered an EC50 of 519 nM.
As for B8, the concentration giving a half-maximal response (EC50) was 538 nM.
In turn, B9 displayed a half-maximal effective concentration (EC50) of 525 nM.

The next assay deals with T1, human CEA. Put plainly: flow cytometry, human tumor cells (table of the CEA series). The text has this:
(§1) 1) Cell preparation: T cells isolated from CD3-positive human whole blood were used for a CD3 end affinity detection of multifunctional antibody molecule; positive tumor cells of corresponding antigen were used for detecting affinity of tumor antigen; for example, CD38-positive MM. 1S cells (purchased from the Cell Resource Center of Shanghai Institutes for Biological Sciences, Chinese Academy of Sciences) or RPMI 8226 cells (purchased from the Cell Resource Center of Shanghai Institutes for Biological Sciences, Chinese Academy of Sciences) were used for CD38 antigen detection, and PD-L1 positive H358 cells (purchased from the Cell Resource Center of Shanghai Institutes for Biological Sciences, Chinese Academy of Sciences) were used for PD-L1 antigen detection, and so on. The cells were resuspended with 1% FBS-PBS, adjusted to a density of 4×10⁶/ml, and 50 μl of cells were taken from each well, and then plated at 2×10⁵ per well. Cell plating was operated on ice
(§2) 2) Addition of the antibody: according to the experimental design, the antibody was diluted gradually, and dilution of antibody was operated on ice. For example, the initial concentration of antibody for dilution was 3000 nM, and the antibody was diluted by 3 times with 11 concentration gradients. The diluted antibody was added to a cell well at 50 μl per well, mixed well, and shaked and incubated at 4° C. 1100 rpm/min for 2 h; after washing, the cells were resuspend in 1% FBS-PBS, and a diluted secondary antibody PE anti-human IgG FC (Biolegend, 409304) was added with a final concentration of 8 ug/ml and a volume of 50 μl/well. At the same time, a well only added with cells and secondary antibody was set as a control, the components were mixed well, and incubated under shaking at 1100 rpm/min at 4° C. for 1 h;
(§3) 5) Data analysis: the data was analyzed by a flow analysis software FlowJo 7.6 thereby obtaining an average fluorescence intensity of the specific antibody concentration, plotted by a Graphpad Prism 5 with the antibody concentration (nM) as an abscissa and the average fluorescence intensity as an ordinate; the EC50 value was calculated by the method of One site—Specific binding, and the EC50 value indicated the cell affinity of the antibody to the corresponding target antigen.
Regarding B2, the binding result is listed as “no binding”.
As to B3, the binding result was “no binding”.
Still for that read-out and setting: next, B10: “no binding”; B11: “no binding”.

The target of a further assay is T2, Human BCMA. Put plainly: flow cytometry, human tumor cells (table of the BCMA series).
Description: as §1, §2, §3
For the molecule B1, the binding result is “no binding”.
In the case of B4, the binding result is on record as “no binding”.
On the same count and under the same terms, next, B5: “no binding”.
On the same count and under the same terms, next, B6: “no binding”.
Take B7: the binding result is on record as “no binding”.
The same measure, in the same setting: under B8 stands “no binding”; under B9, “no binding”.
